From US20040265235A1, “Magnetic resonance contrast-enhancing agents and method for detecting and imaging artherosclerotic plaque” (priority 2003, published 2004)

Test: MR T1 relaxivity of contrast agents
Type: physicochemical
Conditions: globular versus elongated conformation
Protocol: A low relaxivity or long relaxation time is associated with an elongated molecule such as a highly substituted Gd-DTPA-PLL, in which the Gd can rotate rapidly, having a relaxivity of about 8 sec^−1 mM^−1. When the relaxivity of a peptide contrast agent was high, the uptake coefficient of such an agent was invariably low, evidently due to the absence of a reptation movement of the contrast agent molecule, resulting in the exclusion of the contrast agent from narrow passages. Thus, it is important to establish that the peptides being compared for optimum length are all of the same conformation. Relaxivity values of the Gd-PLL for various lengths were tested to be between 7.5 and 10 for average chain length of 92, 219, 455, 633, and 1163 residues, in a 2 Tesla magnet (2 T) at 80 MHz and 23° C.

albumin
relaxivity: about 15 sec^−1 mM^−1
